The text below walks through data of US20230052680A1 (DIZAL JIANGSU PHARMACEUTICAL, published 2023).

Assay [1] addresses T1, recombinant cyno FGFR2b-Fc (Cynomolgus monkey).
T1 construct: also called Cynomolgus monkey FGFR2b ECD-murine Fc; cynomolgus FGFR2b
Briefly: ELISA, plate coated with 0.1 ug/ml cyno FGFR2b-Fc, anti-human IgG HRP detection. The method, then: (§1) The cross-species binding of Ab 36c to recombinant cyno, rat/mouse, and human FGFR2b-Fc fusion proteins was conducted with ELISA. In brief, 96-well ELISA plate were coated with about 100 ul/well 0.1 μg/ml recombinant human FGFR2b-Fc, recombinant rat/mouse FGFR2b-Fc, or recombinant cyno FGFR2b-Fc protein in PBS overnight. Then the plate was blocked with 2% BSA in PBS with 0.05% Tween20 and incubation with antibody samples for 60 min at room temperature, and then washed twice in 1×TBST (Cell Signaling Technology, #9997) and followed by incubation with anti-human lgG HRP (Horseradish peroxidase) conjugate for 60 min at a room temperature. HRP activity was detected with tetra-methylbenzidine substrate (Cell Signaling Technology, #7004) and the reaction was stopped with stop solution (Cell Signaling Technology, #7002). The plate was read at 450 nm. […] Ab 36c has the highest binding affinity to rat/mouse FGFR2b, followed by human FGFR2b, and then cyno FGFR2b.

Assay [2] concerns the target T2, recombinant rat/mouse FGFR2b-Fc (rat).
T2 construct: also called rat FGFR2b fused with murine Fc
Briefly: ELISA, plate coated with 0.1 ug/ml rat/mouse FGFR2b-Fc, anti-human IgG HRP detection. The method, then: as §1
Background: ELISA stands for enzyme-linked immunosorbent assay.

The target of assay [3] is T3, recombinant human FGFR4-Fc (human, UniProt P22455 22-369).
T3 construct: Bought (R&D Systems); not shown: human Fc of the bought fusion protein; not described
T3 sequence (looked up): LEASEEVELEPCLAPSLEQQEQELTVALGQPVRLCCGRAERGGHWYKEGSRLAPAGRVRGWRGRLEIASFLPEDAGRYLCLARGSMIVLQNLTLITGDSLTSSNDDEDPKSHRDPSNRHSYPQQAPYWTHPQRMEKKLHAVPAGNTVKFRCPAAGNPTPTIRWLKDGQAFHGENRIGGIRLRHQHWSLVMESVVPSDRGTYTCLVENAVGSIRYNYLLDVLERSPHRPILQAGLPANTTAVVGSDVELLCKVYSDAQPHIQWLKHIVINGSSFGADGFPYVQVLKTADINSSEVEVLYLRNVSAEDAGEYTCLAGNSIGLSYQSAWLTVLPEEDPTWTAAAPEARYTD
Briefly: ELISA, plate coated with HuFGFR4.

Assay [4] addresses T4, recombinant human FGFR1b-Fc (human, UniProt P11362-19 22-376, limits assumed).
T4 construct: Bought (R&D Systems); not shown: human Fc of the bought fusion protein; not described
T4 sequence (looked up): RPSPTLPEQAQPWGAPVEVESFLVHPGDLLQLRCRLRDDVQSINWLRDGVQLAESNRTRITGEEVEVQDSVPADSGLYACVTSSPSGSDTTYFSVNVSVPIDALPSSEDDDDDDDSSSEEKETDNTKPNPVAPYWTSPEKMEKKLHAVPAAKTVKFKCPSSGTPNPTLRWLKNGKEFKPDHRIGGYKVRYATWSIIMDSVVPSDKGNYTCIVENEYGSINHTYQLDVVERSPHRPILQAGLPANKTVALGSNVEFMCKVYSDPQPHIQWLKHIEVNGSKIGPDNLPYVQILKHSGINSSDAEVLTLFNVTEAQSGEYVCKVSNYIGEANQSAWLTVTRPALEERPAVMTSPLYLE
Briefly: ELISA, plate coated with HuFGFR1b.

The target of assay [5] is T5, recombinant human FGFR3b-Fc (human, UniProt P22607-2 23-377).
T5 construct: Bought (R&D Systems); not shown: human Fc of the bought fusion protein; not described
T5 sequence (looked up): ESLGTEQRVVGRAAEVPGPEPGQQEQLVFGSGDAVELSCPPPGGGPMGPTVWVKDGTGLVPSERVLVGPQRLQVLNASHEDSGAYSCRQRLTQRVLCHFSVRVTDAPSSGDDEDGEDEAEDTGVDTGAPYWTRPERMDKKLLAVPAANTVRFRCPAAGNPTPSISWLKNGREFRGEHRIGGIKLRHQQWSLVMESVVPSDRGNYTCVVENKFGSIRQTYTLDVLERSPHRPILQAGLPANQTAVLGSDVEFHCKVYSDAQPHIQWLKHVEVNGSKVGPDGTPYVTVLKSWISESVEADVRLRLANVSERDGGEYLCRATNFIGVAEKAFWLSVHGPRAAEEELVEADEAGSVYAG
Briefly: ELISA, plate coated with HuFGFR3b.

The target in assay [6] is T4, recombinant human FGFR1b-Fc. Briefly: ELISA on FGFR family Fc fusion proteins.
Assay [7] addresses T5, recombinant human FGFR3b-Fc. Briefly: ELISA on FGFR family Fc fusion proteins.
Assay [8] has as its target T3, recombinant human FGFR4-Fc. Briefly: ELISA on FGFR family Fc fusion proteins.

B1: Ab 36c (antibody, V domains shown)
VH: QPYLQQSGAELVRPGASVKMSCKASGYTFTSYNMHWVKQTPRQGLEWIGAIFPENGDTSYNQKFKGKATLTVDKSSSTAYMQLSSLTSEDSAVYFCARGGFDYWGQGTTLTVSS
VL: DIVMTQSHKFMSTSVGDRVSITCKASQDVSTNVAWYQQKPGQSPKLLIFSASYRYTGVPDRFAGSGSGTDFTFTISSVQAEDLAVYYCQQHYSSPYTFGGGTKLDIK
notes: Chimeric: mouse VH and VL fused to human heavy and light chain constant regions; also called chimeric Ab 36; Ab c 36c
As a reminder, the EC50 (read off the curve) is the concentration that produces a half-maximal response. As to B1, the results for the “EC50 (read off the curve)” value in assay [1] and in assay [2] were ~0.4 nM and ~0.2 nM, respectively.

B2: Ab 36 (antibody, V domains shown)
VH: B1 VH
VL: B1 VL
notes: Mouse monoclonal antibody from a hybridoma; also called mouse Ab 36; antibody 36
Turning to B2, the binding result in assay [3], in assay [4] and in assay [5] was “no binding” in each case.

B3: Ab hu36-2 (antibody, human IgG1, V domains shown)
VH: QVQLVQSGAEVKKPGSSVKVSCKASGYTFTSYNMHWVRQAPGQGLEWIGAIFPENGDTSYNQKFKGRATITADKSTSTAYMELSSLRSEDTAVYYCARGGFDYWGQGTTVTVSS
VL: DIQMTQSPSSLSASVGDRVTITCKASQDVSTNVAWYQQKPGKAPKLLIFSASYRYTGVPSRFSGSGSGTDFTFTISSLQPEDIATYYCQQHYSSPYTFGQGTKLEIK
notes: Humanized antibody with human IgG1
For the molecule B3, the binding result in assay [6], in assay [7] and in assay [8] was “no binding” each time.
